Consider one sequence from patent US7423115B2, “ARTS C-terminus fragments and mimetics thereof” (SimeTRA Pharm Ltd, priority 2005, dated 2008).

For experiment [1], the target named is T1, Bir3 domain of XIAP protein (Homo sapiens, UniProt P98170).
T1 construct: vectors expressing either the Bir3 domain of XIAP protein fused to GST; expressed in transfected cells; host or cells: COS-7
The experiment is described as follows: Co-immunoprecipitation of myc-tagged ARTS C-terminus with GST-Bir3 on glutathione beads in transfected, staurosporine-treated COS-7 cells. The class given is binding. Conditions: COS-7 cells co-transfected, 1.25 μM staurosporine for 1 hr, Western blot with anti-ARTS C-terminus antibody. How it is done:
COS-7 cells were transfected with 2.5 μg each of vectors expressing either the Bir3 domain of XIAP protein fused to GST or the GST alone, together with the myc-tagged ARTS C-terminus or myc-ARTS alone. After 40 hr, cells were exposed to 1.25 μM staurosporine for 1 hr and then washed in phosphate-buffered saline (PBS), scraped off the dish, pelleted, resuspended in 20 μL lysis buffer (150 mM NaCl, 50 mM Tris-HCl (pH 8), 1% NP-40, 0.5% deoxycholate acid, protease inhibitors (Mini Complete®, Roche Applied Science, Indianapolis, Ind.), and incubated on ice for 20 min.
Lysis buffer was added to lysate containing 400 mcg total protein, to a final volume of 1 ml. 100 mcL of 20% glutathione beads was added, and the mixture was rotated at 7.5° C. overnight. Beads were centrifuged at 400×g for 2 min and washed 3 times in 1 ml RIPA buffer (0.1% SDS, 1% NP-40, 0.5% deoxycholate acid, 150 mM NaCl, 50 mM Tris-HCl (pH 8), protease inhibitors). The pellet was boiled for 5 min in an additional 25 mcL RIPA buffer and 10 mcL 4× loading buffer, then the sample was electrophoresed on an SDS poly-acrylamide gel, transferred to PVDF membrane, and subjected to Western blot using monoclonal antibody directed against the ARTS C-terminus. Blots were developed with the West Pico kit (Pierce Biotechnology, Rockford, Ill.).

In experiment [2] the test system is cells. Briefly: Induction of apoptosis by the ARTS C terminus. The class given is cell-based. How it is done: Cells were incubated for 24 hours with no peptide (negative control) or with 100 micromolar (mcM) peptides corresponding to residues 1-9 (“pep1”), 10-18 (“pep2”), or 19-27 (“pep3”) of the ARTS C-terminus Apoptotic cells were detected using DAPI staining or TUNEL. For TUNEL assays, the cells were fixed and permeabilized. Apoptosis levels were determined using the TUNEL In situ™ cell death detection TMR kit (Roche) according to the manufacturer's protocol. All samples were coded, and experiments were performed in a blind manner.

T1 sequence (P98170 265-330 limits assumed): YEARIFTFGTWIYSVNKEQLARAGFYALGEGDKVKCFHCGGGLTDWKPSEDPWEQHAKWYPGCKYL

As to “YGPSLRLLAPPGAVKGTGQEHQGQGCH [ARTS C terminus]”, the “Interaction with GST-Bir3 domain of XIAP (co-precipitation with glutathione beads)” value in experiment [1] is “co-precipitated”. For the same sequence, in experiment [2], the Induction of apoptosis result is recorded as “sufficient for induction of apoptosis”.
